Self-cleavage data for 32 variants are collected here from the RNAGym collection of RNA variant scans (doi:10.7554/elife.80360).

B1: HDV Ribozyme (parent)
chain: GGCCGGCAUGGUCCCAGCCUCCUCGCUGGCGCCGGCUGGGCAACAUUCCGAGGGGACCGUCCCCUCGGUAAUGGCGAAUGGGACCCA

The series covers variants of B1. Kind of series: self-cleavage, relative activity (ratio to wild type); higher = more cleavage; co-transcriptional.
Consider AGCCGGCAUGGUCCCAGCCUCCUCGCUGGCGCCGGCUGGGCAACAUUCUGAGGGGACCGUCCCCUCGGUAAUGGCGAAUGGGACCCA [G1A C49U], for which the self-cleavage stood at 0.

For AGCCGGCAUGGUCCCUGCCUCCUCGCUGGCGCCGGCUGGGCAACAUUCCGAGGGGACCGUCCCCUCGGUAAUGGCGAAUGGGACCCA [G1A A16U], the self-cleavage was determined as 0.

Take AGCCGGCAUGGUCCCCGCCUCCUCGCUGGCGCCGGCUGGGCAACAUUCCGAGGGGACCGUCCCCUCGGUAAUGGCGAAUGGGACCCA [G1A A16C]: the self-cleavage turned out to be 0.158.

AGCCGGCAUGGUCCCAGCCUCCUCGCUGGCGACGGCUGGGCAACAUUCCGAGGGGACCGUCCCCUCGGUAAUGGCGAAUGGGACCCA [G1A C32A]: the self-cleavage amounted to 0.0386.

As for AGCCGGCAUGGUCCCAGCCUCCUCGCUGGCGUCGGCUGGGCAACAUUCCGAGGGGACCGUCCCCUCGGUAAUGGCGAAUGGGACCCA [G1A C32U], the self-cleavage is 0.133.

As to AGCCGGCAUGGUCCCAGCCUCCUCGCUGGCGGCGGCUGGGCAACAUUCCGAGGGGACCGUCCCCUCGGUAAUGGCGAAUGGGACCCA [G1A C32G], the self-cleavage amounted to 0.113.

For AGCCGGCAUGGUCCCAGCCUCCUCGCUGGCGCCGGCUGGGCAACAUUCCGAGGGGACCGUCCCCUCGGUUAUGGCGAAUGGGACCCA [G1A A70U], the self-cleavage turned out to be 0.

Consider AGCCGGCAUGGUCCCAGCCUCCUCGCUGGCGCCGGCUGGGCAACAUUCCGAGGGGACCGUCCCCUCGGUCAUGGCGAAUGGGACCCA [G1A A70C], for which the self-cleavage was 0.192.

Regarding AGUCGGCAUGGUCCCAGCCUCCUCGCUGGCGCCGGCUGGGCAACAUUCCGAGGGGACCGUCCCCUCGGUAAUGGCGAAUGGGACCCA [G1A C3U], the self-cleavage was 0.297.

With AGCCGGCAUGGUGCCAGCCUCCUCGCUGGCGCCGGCUGGGCAACAUUCCGAGGGGACCGUCCCCUCGGUAAUGGCGAAUGGGACCCA [G1A C13G], the self-cleavage worked out at 0.

As for AGCCGGCAUGGUACCAGCCUCCUCGCUGGCGCCGGCUGGGCAACAUUCCGAGGGGACCGUCCCCUCGGUAAUGGCGAAUGGGACCCA [G1A C13A], the self-cleavage amounted to 0.0639.

For AGCCGGCAUGGUUCCAGCCUCCUCGCUGGCGCCGGCUGGGCAACAUUCCGAGGGGACCGUCCCCUCGGUAAUGGCGAAUGGGACCCA [G1A C13U], the self-cleavage was 0.119.

On to AGCCGGCAUGGUCCCAGCCUCCUCGAUGGCGCCGGCUGGGCAACAUUCCGAGGGGACCGUCCCCUCGGUAAUGGCGAAUGGGACCCA [G1A C26A], for which the self-cleavage was 0.119.

Turning to AGCCGGCAUGGUCCCAGCCUCCUCGUUGGCGCCGGCUGGGCAACAUUCCGAGGGGACCGUCCCCUCGGUAAUGGCGAAUGGGACCCA [G1A C26U], the self-cleavage was 0.

As for AGCCGGCAUGGUCCCAGCCUCCUCGGUGGCGCCGGCUGGGCAACAUUCCGAGGGGACCGUCCCCUCGGUAAUGGCGAAUGGGACCCA [G1A C26G], the self-cleavage was 0.

For AGCCGGCAUGGUCCCAGCCUCCUCGCUGGUGCCGGCUGGGCAACAUUCCGAGGGGACCGUCCCCUCGGUAAUGGCGAAUGGGACCCA [G1A C30U], the self-cleavage was determined as 0.0554.

As to AGCCGGCAUGGUCCCAGCCUCCUCGCUGGGGCCGGCUGGGCAACAUUCCGAGGGGACCGUCCCCUCGGUAAUGGCGAAUGGGACCCA [G1A C30G], the self-cleavage worked out at 0.

AGCCGGCAUGGUCCCAGCCUCCUCGCUGGCGCCGGCUGGGCAACAUUCCGAGGGGACCGUCCACUCGGUAAUGGCGAAUGGGACCCA [G1A C63A]: the self-cleavage is 0.289.

With AGCCGGCAUGGUCCCAGCCUCCUCGCUGGCGCCGGCUGGGCAACAUUCCGAGGGGCCCGUCCCCUCGGUAAUGGCGAAUGGGACCCA [G1A A56C], the self-cleavage turned out to be 0.107.

AGCCGGCAUGGUCCCAGCCUCCUCGCUGGCGCCGGCUGGGCAACAUUCCGAGGGGGCCGUCCCCUCGGUAAUGGCGAAUGGGACCCA [G1A A56G]: the self-cleavage was 0.

As to AGCCGGCAUGGUCCCAGCCUCCUCGCUGGCGCCGGCUGGGCAACAUUCCGAGGGGUCCGUCCCCUCGGUAAUGGCGAAUGGGACCCA [G1A A56U], the self-cleavage was determined as 0.217.

For AGCCGGCAUGGUCCCAGCCUCCUCGCUGGCGCCGGCUGGGCAGCAUUCCGAGGGGACCGUCCCCUCGGUAAUGGCGAAUGGGACCCA [G1A A43G], the self-cleavage is 0.0875.

On to AGCCGGCAUGGUCCCAGCCUCCUCGCUGGCGCCGGCUGGGCACCAUUCCGAGGGGACCGUCCCCUCGGUAAUGGCGAAUGGGACCCA [G1A A43C], for which the self-cleavage was determined as 0.0415.

Consider AGCCGGCAUGGUCCCAGCCUCCUCGCUGGCGCCGGCUGGGCAUCAUUCCGAGGGGACCGUCCCCUCGGUAAUGGCGAAUGGGACCCA [G1A A43U], for which the self-cleavage was determined as 0.0437.

Consider AGCCGGCAUGGUCCGAGCCUCCUCGCUGGCGCCGGCUGGGCAACAUUCCGAGGGGACCGUCCCCUCGGUAAUGGCGAAUGGGACCCA [G1A C15G], for which the self-cleavage stood at 0.

Regarding AGCCGGCAUGGUCCCAGCCUCCUCGCUGGCGCCGGCUGGGCAACAUUGCGAGGGGACCGUCCCCUCGGUAAUGGCGAAUGGGACCCA [G1A C48G], the self-cleavage was 0.199.

AGCCGGCAUGGUCCCAGCCUCCUCGCUGGCGCCGGCUGGGCAACAUUUCGAGGGGACCGUCCCCUCGGUAAUGGCGAAUGGGACCCA [G1A C48U]: the self-cleavage was 0.

As to AGCCGGGAUGGUCCCAGCCUCCUCGCUGGCGCCGGCUGGGCAACAUUCCGAGGGGACCGUCCCCUCGGUAAUGGCGAAUGGGACCCA [G1A C7G], the self-cleavage worked out at 0.0405.

Turning to AGCCGGCAUGGUCCCAGCCUCCUCGCUGGCGCCGGCUGGGCAACAUUCCGAGGGGACCGUCCCCUCGGUAAUGGCGAAUGGGUCCCA [G1A A83U], the self-cleavage stood at 0.

For the variant AGCCGGCAUGGUCCCAGCCUCCUCGCUGGCGCCGGCUGGGCAACAUUCCGAGGGGACCGUCCCCUCGGUAAUGGCGAAUGGGGCCCA [G1A A83G], the self-cleavage stood at 0.219.

For AGCCGGCAUGGUCCCAGCCUCCUAGCUGGCGCCGGCUGGGCAACAUUCCGAGGGGACCGUCCCCUCGGUAAUGGCGAAUGGGACCCA [G1A C24A], the self-cleavage is 0.119.

For the variant AGCCGGCAUGGUCCCAGCCUCCUUGCUGGCGCCGGCUGGGCAACAUUCCGAGGGGACCGUCCCCUCGGUAAUGGCGAAUGGGACCCA [G1A C24U], the self-cleavage was 0.111.
